According to the supplement of paper PMC7125110:
± gives the standard error. For part of these data: Fewer inactive variants are shown than the library holds.

B1: glmS ribozyme (parent)
chain: AUAAAAGCGCCAGAACUACAGAAAUGUAGUUGACGAGGAGGAGGUUUAUCGAAUUUUCGGCGGAUGCCUCCAAA

Tests used:
Details in all cases: with glucosamine-6-phosphate
[1] = variants of: B1; test: kcat; higher = faster cleavage; RNA array
Summary of the method: (§1)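 Barcoded ribozyme variants on sequenced MiSeq chips were transcribed in situ by E. coli RNA polymerase and followed at 37 °C through a hybridised Cy3 probe. Glucosamine-6-phosphate at 40 μM to 10 mM in HEPES/KCl/Mg(OAc)2 buffer was flowed in, and tiles were imaged over ~14 h. Signals were normalised to baseline and to non-cleaving reference variants, and per-tile medians were fit to one- or two-exponential decays to give kobs. Weighted Michaelis–Menten fits across concentrations gave kcat and KM.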

[2] = variants of: B1; test: self-cleavage kobs at 40 uM GlcN6P; higher = faster cleavage; RNA array
Summary of the method: as §1

[3] = variants of: B1; test: self-cleavage kobs at 640 uM GlcN6P; higher = faster cleavage; RNA array
Summary of the method: as §1

[4] = variants of: B1; test: KM; higher = weaker cofactor use; RNA array
Summary of the method: as §1

[5] = variants of: B1; test: self-cleavage kobs at 160 uM GlcN6P; higher = faster cleavage; RNA array
Summary of the method: as §1

[6] = variants of: B1; test: self-cleavage kobs at 2500 uM GlcN6P; higher = faster cleavage; RNA array
Summary of the method: as §1

[7] = variants of: B1; test: self-cleavage kobs at 10000 uM GlcN6P; higher = faster cleavage; RNA array
Summary of the method: as §1

| Variant | kcat [1] [s⁻¹] | self-cleavage kobs at 40 uM GlcN6P [2] [s⁻¹] | self-cleavage kobs at 640 uM GlcN6P [3] [s⁻¹] | KM [4] [µM] | self-cleavage kobs at 160 uM GlcN6P [5] [s⁻¹] | self-cleavage kobs at 2500 uM GlcN6P [6] [s⁻¹] | self-cleavage kobs at 10000 uM GlcN6P [7] [s⁻¹] |
| --- | --- | --- | --- | --- | --- | --- | --- |
| G13C G41A | 5.76e-05 ± 4.7e-06 | < 1e-05 | < 1e-05 | – | – | – | – |
| A14C C68U | 0.000506 ± 4e-05 | – | 0.00015 ± 2.1e-05 | 1460 ± 250 | 6.97e-05 ± 2.3e-05 | 0.000305 ± 6.4e-05 | 0.000447 ± 5e-05 |
| A14C C68A | 2.76e-05 ± 9.8e-06 | – | – | – | – | 3.95e-05 ± 1.8e-05 | – |
| A14U A15G C34G C50A G62U | 1.29e-05 ± 5.5e-06 | – | – | – | – | – | – |
| A14G G41U | 0.00179 ± 0.00049 | 0.00033 ± 4.5e-05 | 0.00124 ± 0.00021 | 206 ± 99 | 0.000642 ± 0.00012 | 0.00232 ± 0.00045 | – |
| G13A U57C | 7.9e-05 ± 5.5e-06 | < 1e-05 | – | 4540 ± 780 | – | 2.88e-05 ± 9.2e-06 | 5.42e-05 ± 8.5e-06 |
| G13C U30C | 0.000129 ± 2e-05 | < 1e-05 | 4.05e-05 ± 1.7e-05 | 1470 ± 480 | – | 8.07e-05 ± 2e-05 | – |
| A14U G32U | 0.000874 ± 0.00012 | – | 0.000142 ± 1.2e-05 | 3050 ± 730 | 7.67e-05 ± 1.7e-05 | 0.000422 ± 4e-05 | 0.00066 ± 5.2e-05 |
| G13U G29U | 0.000324 ± 4.8e-05 | – | 4.23e-05 ± 9.2e-06 | 3430 ± 1000 | – | 0.000161 ± 2.1e-05 | 0.000234 ± 2.3e-05 |
| A14C C16G | 8.6e-05 ± 5.5e-06 | – | 4.86e-05 ± 1.2e-05 | 438 ± 180 | – | 8.11e-05 ± 8.9e-06 | 7.9e-05 ± 6.9e-06 |
| A14C U57C | 5.66e-05 ± 5.7e-07 | < 1e-05 | – | 1390 ± 73 | – | 3.68e-05 ± 1.3e-05 | 4.96e-05 ± 7.4e-06 |
| G13U G63U | < 1e-05 | < 1e-05 | – | – | – | – | – |
| G13A U56A | 0.000767 ± 0.0001 | – | 0.000106 ± 1.3e-05 | 3960 ± 750 | 2.49e-05 ± 1e-05 | 0.000312 ± 3.9e-05 | 0.000519 ± 0.00011 |
| A14C A64G | 0.00265 ± 0.00066 | 0.000141 ± 3e-05 | 0.000733 ± 0.00024 | 884 ± 370 | 0.000434 ± 0.0002 | 0.00221 ± 0.00047 | 0.00267 ± 0.00068 |
| A14G A52U | 0.000706 ± 1.3e-05 | – | 9.98e-05 ± 1.6e-05 | 3890 ± 120 | – | 0.000274 ± 5.2e-05 | 0.000509 ± 6.5e-05 |
| A14U U49G A53U U69G | 6.87e-05 ± 2.3e-05 | – | – | – | 8.99e-05 ± 3.4e-05 | 7.58e-05 ± 2.1e-05 | – |

| Variant | kcat [1] [s⁻¹] | self-cleavage kobs at 40 uM GlcN6P [2] [s⁻¹] | self-cleavage kobs at 640 uM GlcN6P [3] [s⁻¹] | KM [4] [µM] | self-cleavage kobs at 160 uM GlcN6P [5] [s⁻¹] | self-cleavage kobs at 2500 uM GlcN6P [6] [s⁻¹] | self-cleavage kobs at 10000 uM GlcN6P [7] [s⁻¹] |
| --- | --- | --- | --- | --- | --- | --- | --- |
| A14C G66C | 9.53e-05 ± 3.1e-06 | – | – | 2140 ± 260 | – | 5.12e-05 ± 1.5e-05 | 7.85e-05 ± 9.8e-06 |
| G13C C16A | 0.000101 ± 1.7e-06 | – | 4.82e-05 ± 1.7e-05 | 712 ± 55 | – | 7.81e-05 ± 1.4e-05 | 9.42e-05 ± 1.4e-05 |
| A14G G43U U46G | 3.09e-05 ± 3.5e-06 | < 1e-05 | – | 1610 ± 590 | – | – | – |
| A14C U49G | 0.000151 ± 5.2e-06 | – | – | 6690 ± 570 | – | – | 9.07e-05 ± 1.3e-05 |
| A14G C67G | 0.00362 ± 0.00046 | 9.34e-05 ± 8.5e-06 | 0.00104 ± 0.00011 | 1530 ± 280 | 0.000388 ± 6e-05 | 0.00164 ± 0.00033 | 0.00339 ± 0.0003 |
| G13C U69A | 2.51e-05 ± 9.3e-06 | – | 4.85e-05 ± 2.3e-05 | – | – | – | – |
| G13C G29U | 0.000169 ± 1.6e-05 | – | 3.22e-05 ± 1.3e-05 | 3700 ± 710 | – | 6.58e-05 ± 8.4e-06 | 0.000125 ± 1.6e-05 |
| G13U A53U | 0.00139 ± 4.1e-05 | – | 0.000213 ± 3.9e-05 | 3550 ± 190 | 5.58e-05 ± 2e-05 | 0.000584 ± 0.00011 | 0.00103 ± 0.00011 |
| G13U A53G | 0.0022 ± 0.00047 | 2.14e-05 ± 9.7e-06 | 0.00029 ± 3.4e-05 | 4460 ± 1300 | 8.17e-05 ± 1e-05 | 0.000631 ± 9.5e-05 | 0.00168 ± 0.0002 |
| A14C A15U | 0.000353 ± 2.4e-05 | – | 5.17e-05 ± 6.8e-06 | 3640 ± 380 | – | 0.000148 ± 1.9e-05 | 0.000256 ± 3.6e-05 |
| A14G G66U | 0.00542 ± 0.00096 | 0.000114 ± 1.2e-05 | 0.00094 ± 0.00012 | 2220 ± 560 | 0.00039 ± 4e-05 | 0.00287 ± 0.00033 | 0.00464 ± 0.0004 |
| A14G G37U | 2.35e-05 ± 1.3e-06 | < 1e-05 | – | 1680 ± 470 | – | – | 2.02e-05 ± 1e-05 |
| A14G G37C | 0.000101 ± 3.2e-05 | – | 5.36e-05 ± 1.6e-05 | – | – | 4.49e-05 ± 9e-06 | 8.64e-05 ± 9.6e-06 |
| G13U A15G G32A C70G | 9.35e-05 ± 2.2e-06 | – | 5.48e-05 ± 1.7e-05 | 405 ± 40 | – | 8.14e-05 ± 1.6e-05 | 8.98e-05 ± 1.9e-05 |
| A14U A36G G66U | < 1e-05 | – | < 1e-05 | – | – | – | < 1e-05 |
| A14C G40U | 0.000718 ± 9.8e-05 | – | 0.000144 ± 2.2e-05 | 2800 ± 790 | – | 0.000352 ± 6.1e-05 | 0.000555 ± 5.2e-05 |
